The source of these data is article PMC11160874 (2024).

Assay [1] concerns the target T1, microtubule (alpha/beta-tubulin, taxol-stabilized) (Sus scrofa, UniProt P02550).
T1 chain 1: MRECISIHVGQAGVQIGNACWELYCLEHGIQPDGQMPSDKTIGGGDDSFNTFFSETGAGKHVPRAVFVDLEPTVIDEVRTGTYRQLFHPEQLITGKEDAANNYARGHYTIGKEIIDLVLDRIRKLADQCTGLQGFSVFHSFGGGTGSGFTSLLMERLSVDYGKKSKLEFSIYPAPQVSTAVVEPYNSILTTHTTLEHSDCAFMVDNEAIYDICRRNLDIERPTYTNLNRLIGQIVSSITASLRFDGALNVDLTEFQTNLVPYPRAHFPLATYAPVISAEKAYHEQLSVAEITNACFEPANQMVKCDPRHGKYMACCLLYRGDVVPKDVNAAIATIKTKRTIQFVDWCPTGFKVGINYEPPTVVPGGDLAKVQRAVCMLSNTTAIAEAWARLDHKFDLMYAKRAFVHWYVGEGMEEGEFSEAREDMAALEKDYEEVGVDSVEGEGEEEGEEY
T1 chain 2: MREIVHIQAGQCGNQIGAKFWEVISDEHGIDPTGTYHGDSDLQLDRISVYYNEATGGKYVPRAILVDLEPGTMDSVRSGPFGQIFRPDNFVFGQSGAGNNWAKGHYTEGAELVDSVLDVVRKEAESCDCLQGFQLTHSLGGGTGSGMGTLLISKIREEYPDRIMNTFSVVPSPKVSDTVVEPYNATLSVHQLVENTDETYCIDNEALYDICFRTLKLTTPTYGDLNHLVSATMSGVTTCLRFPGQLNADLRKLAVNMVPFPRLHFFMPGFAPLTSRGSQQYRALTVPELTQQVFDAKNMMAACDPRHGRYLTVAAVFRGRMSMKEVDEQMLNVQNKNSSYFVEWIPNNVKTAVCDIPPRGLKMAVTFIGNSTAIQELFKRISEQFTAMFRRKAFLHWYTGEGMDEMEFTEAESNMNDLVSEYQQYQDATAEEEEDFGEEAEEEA
Kind of assay: TIRF microscopy, 150 mM salt.

The target of assay [2] is T1, microtubule (alpha/beta-tubulin, …). The assay can be described thus: TIRF microscopy, no added salt.

As a reminder, the Kd is the free concentration of one partner at which half of the binding sites on the other are occupied at equilibrium, for simple one-to-one binding.

B1: HURP 1-285 (protein)
chain: MSSSHFASRHRKDISTEMIRTKIAHRKSLSQKENRHKEYERNRHFGLKDVNIPTLEGRILVELDETSQGLVPEKTNVKPRAMKTILGDQRKQMLQKYKEEKQLQKLKEQREKAKRGIFKVGRYRPDMPCFLLSNQNAVKAEPKKAIPSSVRITRSKAKDQMEQTKIDNESDVRAIRPGPRQTSEKKVSDKEKKVVQPVMPTSLRMTRSATQAAKQVPRTVSSTTARKPVTRAANENEPEGKVPSKGRPAKNVETKPDKGISCKVDSEENTLNSQTNATSGMNPDG
modifications: C-terminal eGFP, taxol-stabilized microtubules
For B1, the Kd was around 600 nM in assay [1] and around 33 nM in assay [2].
